Key:
Test in all cases: cell_activity
[1] = test system: T1, phiC31 integrase (Streptomyces phage phiC31?); conditions: positive control; EGFP+ 293T cells at day 20
T1 sequence: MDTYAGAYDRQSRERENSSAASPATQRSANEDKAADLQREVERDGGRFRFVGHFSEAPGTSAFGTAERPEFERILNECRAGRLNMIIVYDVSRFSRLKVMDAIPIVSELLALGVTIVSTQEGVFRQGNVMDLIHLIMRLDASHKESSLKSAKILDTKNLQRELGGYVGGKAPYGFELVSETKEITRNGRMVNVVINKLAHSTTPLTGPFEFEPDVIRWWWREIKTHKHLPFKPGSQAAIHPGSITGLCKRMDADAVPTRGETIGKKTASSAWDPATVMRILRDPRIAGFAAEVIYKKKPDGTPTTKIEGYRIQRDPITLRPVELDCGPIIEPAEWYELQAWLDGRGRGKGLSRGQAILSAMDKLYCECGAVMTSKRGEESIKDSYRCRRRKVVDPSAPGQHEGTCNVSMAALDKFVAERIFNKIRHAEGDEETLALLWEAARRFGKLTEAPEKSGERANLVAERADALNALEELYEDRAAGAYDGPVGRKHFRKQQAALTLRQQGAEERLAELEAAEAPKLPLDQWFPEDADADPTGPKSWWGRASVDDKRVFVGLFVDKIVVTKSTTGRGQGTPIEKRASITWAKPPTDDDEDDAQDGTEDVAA

[2] = test system: T2, Cyin16 (metagenome (uncultured organism)); conditions: EGFP+ 293T cells at day 20
T2 sequence: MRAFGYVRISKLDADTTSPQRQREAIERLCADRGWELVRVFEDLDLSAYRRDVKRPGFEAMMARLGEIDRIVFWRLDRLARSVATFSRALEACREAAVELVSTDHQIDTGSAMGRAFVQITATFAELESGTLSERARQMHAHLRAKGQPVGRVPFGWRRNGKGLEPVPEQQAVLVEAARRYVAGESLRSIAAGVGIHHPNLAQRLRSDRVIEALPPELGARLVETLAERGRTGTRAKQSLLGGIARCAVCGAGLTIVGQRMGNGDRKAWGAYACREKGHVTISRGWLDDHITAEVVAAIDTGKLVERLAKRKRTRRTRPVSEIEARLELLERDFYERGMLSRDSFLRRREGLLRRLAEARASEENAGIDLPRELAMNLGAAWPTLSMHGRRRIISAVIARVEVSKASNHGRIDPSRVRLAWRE

[3] = test system: T3, Cyin11 (metagenome (uncultured organism)); conditions: EGFP+ 293T cells at day 20
T3 sequence: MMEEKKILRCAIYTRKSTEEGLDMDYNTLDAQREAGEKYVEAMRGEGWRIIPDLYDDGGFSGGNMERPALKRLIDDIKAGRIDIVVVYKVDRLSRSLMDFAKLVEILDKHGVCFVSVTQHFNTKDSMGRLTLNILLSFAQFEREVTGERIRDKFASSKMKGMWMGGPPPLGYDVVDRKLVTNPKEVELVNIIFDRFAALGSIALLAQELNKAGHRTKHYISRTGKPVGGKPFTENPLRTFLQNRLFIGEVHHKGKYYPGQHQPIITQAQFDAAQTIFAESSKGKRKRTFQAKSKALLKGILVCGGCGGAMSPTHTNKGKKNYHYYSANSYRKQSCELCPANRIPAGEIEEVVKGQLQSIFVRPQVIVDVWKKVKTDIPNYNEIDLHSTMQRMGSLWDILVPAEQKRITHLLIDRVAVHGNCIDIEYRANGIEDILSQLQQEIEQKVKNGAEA

[4] = test system: T4, Cyin14 (metagenome (uncultured organism))
T4 sequence: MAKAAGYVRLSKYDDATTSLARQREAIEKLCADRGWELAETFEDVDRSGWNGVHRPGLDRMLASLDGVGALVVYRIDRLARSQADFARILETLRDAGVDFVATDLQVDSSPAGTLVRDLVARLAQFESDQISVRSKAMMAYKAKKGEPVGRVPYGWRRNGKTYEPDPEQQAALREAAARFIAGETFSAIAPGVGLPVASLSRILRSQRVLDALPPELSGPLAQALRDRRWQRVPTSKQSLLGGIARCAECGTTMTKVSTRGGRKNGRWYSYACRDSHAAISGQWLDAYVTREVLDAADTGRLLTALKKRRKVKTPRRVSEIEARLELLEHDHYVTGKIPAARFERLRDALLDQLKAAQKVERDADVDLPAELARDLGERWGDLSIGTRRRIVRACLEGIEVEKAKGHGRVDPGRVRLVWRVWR

[5] = test system: T5, Cyin15 (metagenome (uncultured organism)); conditions: EGFP+ 293T cells at day 20
T5 sequence: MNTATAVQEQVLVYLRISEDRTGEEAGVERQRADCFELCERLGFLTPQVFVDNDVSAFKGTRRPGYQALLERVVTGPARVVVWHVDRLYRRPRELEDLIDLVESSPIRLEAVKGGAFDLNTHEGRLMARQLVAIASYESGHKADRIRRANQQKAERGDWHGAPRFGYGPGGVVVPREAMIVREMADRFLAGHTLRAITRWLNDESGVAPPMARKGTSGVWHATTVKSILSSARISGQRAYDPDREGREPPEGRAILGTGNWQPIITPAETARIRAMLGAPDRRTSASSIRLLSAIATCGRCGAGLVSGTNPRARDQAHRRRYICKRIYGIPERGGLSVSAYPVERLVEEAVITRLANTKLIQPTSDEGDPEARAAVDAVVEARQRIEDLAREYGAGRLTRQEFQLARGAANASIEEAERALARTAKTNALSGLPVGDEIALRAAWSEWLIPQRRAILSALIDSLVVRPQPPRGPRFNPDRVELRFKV

[6] = test system: T6, Cyin12 (metagenome (uncultured organism)); conditions: EGFP+ 293T cells at day 20
T6 sequence: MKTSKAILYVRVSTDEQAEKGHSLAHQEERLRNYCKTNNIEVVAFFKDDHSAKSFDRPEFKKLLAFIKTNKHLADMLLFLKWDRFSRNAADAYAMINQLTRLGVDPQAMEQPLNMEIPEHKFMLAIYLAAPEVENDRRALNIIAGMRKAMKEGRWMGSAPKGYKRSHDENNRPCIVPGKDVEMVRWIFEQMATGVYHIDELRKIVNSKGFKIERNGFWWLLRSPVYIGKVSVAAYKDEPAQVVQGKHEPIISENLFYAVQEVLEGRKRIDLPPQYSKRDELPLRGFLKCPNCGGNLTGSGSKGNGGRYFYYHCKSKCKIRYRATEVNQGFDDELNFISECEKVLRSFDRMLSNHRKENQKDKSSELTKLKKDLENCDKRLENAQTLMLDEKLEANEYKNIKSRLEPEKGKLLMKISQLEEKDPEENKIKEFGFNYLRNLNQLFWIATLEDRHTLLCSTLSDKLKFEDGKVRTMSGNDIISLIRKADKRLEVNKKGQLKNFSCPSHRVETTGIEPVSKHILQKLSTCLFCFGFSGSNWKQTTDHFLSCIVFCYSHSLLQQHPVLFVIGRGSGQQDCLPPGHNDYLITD

GTCGACGATGTAGGTCACGGTCTCGAAGCCGCGGTGCGGGTGCCAGGGCGTGCCCTTGGGCTCCCCGGGCGCGTACTCCACCTCACCCATCTGGTCCATCATGATGAACGGGTCGAGGTGGCGGTAGTTGATCCCGGCGAACGCGCGGCGCACCGGGAAGCCCTCGCCCTCGAAACCGCTGGGCGCGGTGGTCACGGTGAGCACGGGACGTGCGACGGCGTCGGCGGGTGCGGATACGCGGGGCAGCGTCAGCGGGTTCTCGACGGTCACGGCGGGCATGTCGAC (double strand) [phiC31 attB]
activity [1]: 8.87%

TCGATTCGGTTCGCCGCGCCGCTACCGGATCGCGCCGAAGAGATGACTGATCTCGAGGCTCCGGCCCGAAGGCCTCCTCAACGGCTTCGAGGATCGATTCGGCGCGCACGGGTGCCTCTCTCCGCGCGCCAGCGCGAGGCAATCGAGCGCCTCTGTGCTGACCGCGGGTGGGAGCTCGTTCGAGTCTTCGAGGATCTCGACCTCTCGGCCTACCGCCGCGACGTGAAGCGGCCGGGCTTCGAGGCCATGATGG (double strand) [16-P1]
activity [2]: 1.69%

ATCCAATGTGCAAGGCCATTTAGATGTCGCTTTGGCAAACACACTCGGCCGTTTGTGTCATGAATTATAATATCAGACATGCTACTGAAAAAGATTTATCTGCACTTTGCGATATTGAACATGAATCTTTATTTCCCAAACCAAAAAATGCGTTACCGTTCCAGCGCGTGCCGGTAATTGCAAATGCGACACCAGATAGGCTTTTATATTTCAGCCCCTGATATTCATAGCCGTCAGCCAGCACATACACAT (double strand) [11-B1]
activity [3]: 1.78%

GGGTATTCGGCCTCTCTCCCCGTCACGTCCGCGACGTCTTCGTCGCCGGGGAGCTGGTGGTGGAAGACCGGCGGCCAACGCGGGTCCAGCCGGAGGACATCGTCTGGGACGCCGCCGCGGAGGCCGCGCCGACCGCGGCTGGGAGCTCGCCGAGACCTTCGAGGACGTGGACCGCTCCGGGTGGAACGGGGTTCACCGGCCCGGGCTCGACCGGATGCTGGCCTCACTCGACGGCGTTGGCGCGCTGGTCGT (double strand) [14-P1]
activity ([4]; EGFP+ 293T cells at day 20, donor plasmid integration into genome, significantly above no-integrase control): 10.1%

GGAATCAGCCGGGGCTTCTCGGCCGTCAACATCCGCAAGTTCGTGGTGCGAGCATCGCGCCTGTCGGAGCTGGTCGATCTGCAGAGCCTCACGCCGTCCGCGGCCCTGTTCCTCGAGGCATCCATCCGGGACGACGGCCCCGGAGAGCGATCCCGCTGTGAGCAGGCCGCCCTCGGCAATGTCGAGCGCCGCATGCTGGCCGACCACCTGTTCGATCTCGCTTGCGAGCACCGGCTTCACCGCTGGGTCCGCGCT (double strand) [15-B2]
activity [5]: 1.12%

ACGTATACTGGCGTACACTGATCAAGGAGGGGCCATGGCCAAGGCAGCCGGGTACGTCAGGCTCAGCAAGTACGACGACGCCACCACTAGTCTCGCCCGCCAGCGTGAGGCCATCGAAAAGCTGTGCCCGGCTCTGGGATCGCCTCACCGAGATCGAGCCGCACGCGTTCGAACCGGTGGAGACGAGGTGAAGCCGAACAGGGTCGCGCTCTATCTCCAAGACAAGCACCCCCTCCGCGAGGGGATGAAGTA (double strand) [14-B1]
activity ([4]; EGFP+ 293T cells at day 20): 1.38%

AGCGCCACTTCGTGTGGGGCGTGTTGGAGGATCTCCAAAGCCTCTTCGGCTGAGCCCGCCTCCGTGACGTCGGCGCCCTCCACGCAGTTCTGCAGGACCTGGATGAGGCCCTTTCGAACCAGCGTGTGTACGTGGAGCGGAAGGGGCCGATTATTGACTGAACCGTAGACCAGCCCTATGCTGCTATGGCCGACCAGAGGAGGGGGAGCCATGCGCGCCTTCGGCTACGTCCGGATCTCCAAGCTCGACGCCG (double strand) [16-P2]
activity [2]: 2.33%

TTGTCTTCCTCTGCAGTCAATTGTTTTGGATCATCTTTTTTGGGAACAACAAGATTACTTTGAACATTATCTCTATTTACACCGGTTGAAACCTGGTCCTTCTTATTAAGAACTTCTGTATTTGTCAAAGCAATTCTTTATGTCAGAGTGAGTACAGACGAACAGGCTGAAAAAGGTCACAGTCTGGCTCATCAGGAAGAACGACTTCGTAATTATTGCAAAACAAATAATATCGAGGTCGTTGCTTTTTTTA (double strand) [12-P1]
activity [6]: 1.53%

TGCCGGCCAGTGCCGTCTCGGAGGTGGTGAACCAGGTTTCGGATGAAGTCGTCGGCCTCGGTCCCATCGAGCGATTGCTCAAGGACCCGGAGATCAGCGAGGTGATGGTGAACGGGGCCGACGACGTGGTCGTCGACCAGGAGGACCTTCACGAGGCCGCCTCTCGCAACGGGAACCGGGCCACGACCCGCGTGCCCTTCCCCGGCCGCGGATAGACGTAGAGCCTGCCCCCAGCCTCCCGCACGCGGCGGCG (double strand) [16-B2]
activity ([2]; significantly above no-integrase control): 4.23%
